For experiment [1], the target named is T1, avidin-c-fms Ig-like 1-2 domain fusion protein (chicken; human, UniProt P07333 20-223).
T1 construct: Captured on biotin beads; also called Ig1-2 construct; Ig-like loops 1 and 2 (IPVI-AQIV); not shown: chicken avidin, N-terminal fusion partner from pCEP4-Avidin(N)
The experiment can be described thus: FACS, biotin beads loaded with the avidin fusion protein, FITC-labeled antibody; Neg CM value of this antibody 4.74. Here is the method: (§1) The concentration of each c-fms avidin fusion protein was determined using a quantitative FACS based assay. The c-fms avidin fusion proteins were captured on 6.7 μm biotin polystyrene beads (Spherotech, Inc., Libertyville Ill.). 1× conditioned media (20 and 200 μl) were added to 5 μl (˜3.5×10⁵) beads, and incubated for 1 hr at room temperature with rotation. Conditioned media was removed by centrifugation and samples were washed with PBS containing 0.5% BSA (BPBS). The avidin beads were stained with 200 μl of a 0.5 μg/ml solution of a goat FITC-labeled anti-avidin antibody (Vector Labs, Burlingame, Calif.) in BPBS for 45 minutes at room temperature covered by foil. Following incubation, the beads were recollected by centrifugation, washed with BPBS, and resuspended for analysis in 0.5 ml BPBS. The FITC fluorescence was detected using a FACScan (Becton Dickinson Bioscience, Franklin Lakes, N.J.). The signal was converted to protein mass using a standard curve derived with rAvidin. For epitope mapping, biotin beads were loaded with ˜100 ng of c-fms avidin fusion protein per 3.5×10⁵ beads and brought up to volume with growth medium.
(§2) After incubation for 1 hr at room temperature, 3 ml washing buffer (BPBS) was added and the antibody-beads complexes were collected by centrifugation for 5 min at 750×g. The pellet was washed in 3 ml of BPBS. The antibody bound to avidin-bead complexes was detected by FACS (Becton Dickinson) analysis. The mean (X) fluorescent intensity was recorded for each sample.

For experiment [2], the target named is T2, avidin-c-fms Ig-like 1-5 domain fusion protein (full extracellular domain) (chicken; human, UniProt P07333 20-512).
T2 construct: Captured on biotin beads; also called c-fms ECD Ig1-5 construct; human c-fms ECD; not shown: chicken avidin, N-terminal fusion partner from pCEP4-Avidin(N)
T2 sequence (P07333 20-512 limits assumed): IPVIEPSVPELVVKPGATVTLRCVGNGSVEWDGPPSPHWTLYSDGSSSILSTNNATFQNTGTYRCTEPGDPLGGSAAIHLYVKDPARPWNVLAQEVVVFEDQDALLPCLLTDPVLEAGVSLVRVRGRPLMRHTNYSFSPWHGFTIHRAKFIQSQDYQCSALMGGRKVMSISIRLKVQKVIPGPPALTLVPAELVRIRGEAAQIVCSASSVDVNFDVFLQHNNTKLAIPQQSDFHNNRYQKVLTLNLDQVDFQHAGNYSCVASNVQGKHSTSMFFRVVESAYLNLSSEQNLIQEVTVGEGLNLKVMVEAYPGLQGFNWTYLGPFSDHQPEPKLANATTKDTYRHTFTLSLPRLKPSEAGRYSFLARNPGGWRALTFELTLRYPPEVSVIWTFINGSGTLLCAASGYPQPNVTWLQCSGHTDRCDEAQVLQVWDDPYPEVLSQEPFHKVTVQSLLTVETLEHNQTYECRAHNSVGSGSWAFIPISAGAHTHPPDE
Described as above. The procedure:
as §1, §2

Experiment [3] has as its target T3, avidin-c-fms Ig-like 1-4 domain fusion protein (chicken; human, UniProt P07333 20-418).
T3 construct: Captured on biotin beads; also called Ig-like loops 1-4 (IPVI-GTLL); not shown: chicken avidin, N-terminal fusion partner from pCEP4-Avidin(N)
The description is as above. The procedure:
as §1, §2

Experiment [4] has as its target T4, avidin-c-fms Ig-like 1 domain fusion protein (chicken; human, UniProt P07333 20-126).
T4 construct: Joined through an XhoI site; Captured on biotin beads; also called Ig1 construct; Ig-like loop 1 (IPVI-ALLP); not shown: chicken avidin, N-terminal fusion partner from pCEP4-Avidin(N)
Described as above. Here is the method: as §1, §2

Experiment [5] addresses T1, avidin-c-fms Ig-like 1-2 domain fusion …. Briefly: FACS, biotin beads loaded with the avidin fusion protein, FITC-labeled antibody; Neg CM value of this antibody 4.22. Here is the method:
as §1, §2

Experiment [6] has as its target T2, avidin-c-fms Ig-like 1-5 domain fusion …. The description is as above. Here is the method:
as §1, §2

In experiment [7] the target is T3, avidin-c-fms Ig-like 1-4 domain fusion …. The description is as above. The procedure: as §1, §2
For experiment [8], the target named is T4, avidin-c-fms Ig-like 1 domain fusion …. The description is as above. The procedure:
as §1, §2

In experiment [9] the target is T1, avidin-c-fms Ig-like 1-2 domain fusion …. The experiment can be described thus: FACS, biotin beads loaded with the avidin fusion protein, FITC-labeled antibody; Neg CM value of this antibody 3.32. Here is the method: as §1, §2
In general terms: In flow cytometry, cells or beads pass a laser one at a time.

Experiment [10] addresses T2, avidin-c-fms Ig-like 1-5 domain fusion …. The experiment is described as above. Here is the method: as §1, §2
Experiment [11] concerns the target T3, avidin-c-fms Ig-like 1-4 domain fusion …. The experiment is described as above. The procedure:
as §1, §2

Experiment [12] has as its target T4, avidin-c-fms Ig-like 1 domain fusion …. The description is as above. Here is the method: as §1, §2

T4 sequence (P07333 20-126 limits assumed): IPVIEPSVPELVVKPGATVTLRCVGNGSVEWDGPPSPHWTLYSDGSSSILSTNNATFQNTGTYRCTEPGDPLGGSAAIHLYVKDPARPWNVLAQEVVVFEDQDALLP
T3 sequence (P07333 20-418 limits assumed): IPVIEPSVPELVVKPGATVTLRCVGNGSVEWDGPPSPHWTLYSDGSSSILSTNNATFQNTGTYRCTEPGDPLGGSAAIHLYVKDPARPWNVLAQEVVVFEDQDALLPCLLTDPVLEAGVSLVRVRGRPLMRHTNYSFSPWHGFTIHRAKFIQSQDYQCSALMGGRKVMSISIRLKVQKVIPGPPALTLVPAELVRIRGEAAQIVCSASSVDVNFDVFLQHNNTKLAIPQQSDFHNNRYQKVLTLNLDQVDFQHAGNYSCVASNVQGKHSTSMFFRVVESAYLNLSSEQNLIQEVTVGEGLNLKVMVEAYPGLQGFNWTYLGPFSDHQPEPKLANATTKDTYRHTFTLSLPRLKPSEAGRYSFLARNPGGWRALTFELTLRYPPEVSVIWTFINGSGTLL
T1 sequence (P07333 20-223 limits assumed): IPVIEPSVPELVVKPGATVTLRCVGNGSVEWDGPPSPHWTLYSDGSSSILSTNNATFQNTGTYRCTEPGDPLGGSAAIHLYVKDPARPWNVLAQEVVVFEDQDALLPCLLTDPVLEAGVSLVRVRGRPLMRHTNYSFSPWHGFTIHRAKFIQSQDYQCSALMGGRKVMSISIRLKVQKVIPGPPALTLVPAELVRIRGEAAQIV

B1: anti-c-fms IgG2 clone 1.2 (parent form, PT) (antibody, V domains shown)
VH: QVQLVQSGAEVKKPGASVKVSCKASGYTFTSYGISWVRQAPGQGLEWMGWISAYNGNTNYAQKLQGRVTMTTDTSTSTAYMELRSLRSDDTAVYYCARESWFGEVFFDYWGQGTLVTVSS
VL: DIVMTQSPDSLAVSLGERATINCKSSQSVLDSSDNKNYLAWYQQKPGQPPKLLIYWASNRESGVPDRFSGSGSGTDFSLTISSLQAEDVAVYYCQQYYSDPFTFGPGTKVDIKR
modifications: N-terminal glutamine cyclized to pyroglutamic acid; C-terminal lysine absent
notes: Recombinant human IgG2 kappa from COS/PKB cells (hybridoma was IgG1); also called 1.2.1; Clone 1.2 PT
As for B1, the MFI came to 148 in [1], 342 in [2], 134 in experiment [3] and 2.89 in [4].

B2: anti-c-fms IgG2 clone 1.109 (parent form, PT) (antibody, V domains shown)
VH: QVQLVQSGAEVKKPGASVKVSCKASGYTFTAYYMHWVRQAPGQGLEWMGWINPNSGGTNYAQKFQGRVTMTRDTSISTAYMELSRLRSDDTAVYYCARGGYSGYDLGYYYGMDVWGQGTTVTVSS
VL: DIQMTQSPSSLSASVGDRVTITCQASQNISNFLDWYQQKPGKAPNLLIYDASDLDPGVPSRFSGSGSGTDFTFTISSLQPEDIATYYCQQYVSLPLTFGGGTKVEIKR
modifications: N-linked glycosylation site at Asn-28 in CDR1, reported as likely occupied; N-terminal glutamine cyclized to pyroglutamic acid; C-terminal lysine absent
notes: Recombinant human IgG2 kappa from COS/PKB cells (hybridoma was IgG1)
On to B2, for which the MFI came to 232 in [5], 668 in experiment [6], 215 in experiment [7] and 2.93 in [8].

B3: anti-c-fms IgG2 clone 2.360 (parent form, PT) (antibody, V domains shown)
VH: QVQLVQSGAEVKKPGASVKVSCKVSGYTLTELSMHWVRQAPGKGLEWMGGFDPEDGETIYAQKFQGRVTMTEDTSTDTVYMELSSLRSEDTAVYYCATGVMITFGGVIVGHSYYGMDVWGQGTTVTVSS
VL: DIQMTQSPSSLSASVGDRVTITCRASQGINNYLAWYQQKPGKVPQLLIYVASTLQSGVPSRFSGSGSGTDFTLTISSLQPEDVATYYCQKYNSGPFTFGPGTKVDIKR
modifications: N-terminal glutamine cyclized to pyroglutamic acid; C-terminal lysine absent
notes: Recombinant human IgG2 kappa from COS/PKB cells
For B3, the MFI in experiment [9] amounted to 12; in experiment [10] it was 15.4; in experiment [11], 10.4; in [12], 2.85.

These data come from patent publication US20090155164A1 (Amgen, published 2009).
